The DeepSol protein solubility set

Assay: soluble on expression in E. coli; label from the status in PepcDB or PDB records

Soluble on expression in E. coli, not soluble:
MWVEQIEKILTPRTPLILRCRNVPIPLIVSVFVECDMFDESLPISRAMKCLFVSVLCLSVGATAADAKPKIKVVNKTYSVNATTAQDLIQQMDARGPKGFWAYTDWYVKWTGGCDLSVSITYTMPKHKNEAKLDPELRKSWQSFVTALRKHEELHGAHGIQAAQEIEKSKCADGDSVIRKWSEQDKVLDQRTDHGKKDGVVLK
MYADRDLPGAGGLAVRVIPCLDVDDGRVVKGVNFENLRDAGDPVELAAVYDAEGADELTFLDVTASSSGRATMLEVVRRTAEQVFIPLTVGGGVRTVADVDSLLRAGADKVAVNTAAIACPDLLADMARQFGSQCIVLSVDARTVPVGSAPTPSGWEVTTHGGRRGTGMDAVQWAARGADLGVGEILLNSMDADGTKAGFDLALLRAVRAAVTVPVIASGGAGAVEHFAPAVAAGADAVLAASVFHFRELTIGQVKAALAAEGITVR
MYAYDIYEPIGRKDGEIFPVIFALHGFGGDELDMAGRLELLMDRFVVVSMRGDVEYGPTYGFYHMVTEGDPNAREVDYTSLRVAEFIDEVCNDYVSIDKNQIFLVGFDQGAVLTISIMQSYGGQYKAAALLSGRLPHYLEERPANLMLKDKRIFIGHGIEDAVIQIAEAEEIAQFFQKMGCNVEKHSYFVGHNVNEAEEDDLYSWFESFLP
MYDSAPSDPVPFARLRFRDLQLLREIAAARSLTAVAERRGLTQPALSRTLRDIEAELGAQVFSRERGARLAPTAVGRHILARVDLLMADAGALHSELRAFEEGRGAHLRLGVIPFVSNALMQEVLKTLTGEPLRMSVSTFEGATDQLVLALRRQELDIVIGRLSADAGADTLAQEGLFSQTASIVMSEALYERRASLTLASLHGHPWVLPPASSPTRMAFVEAFVSRNAVAPVARIETTSARLVHSAISSNMASLGLLPLDIGQELERWGGVRCKAFPVPFRMPTVGLIVLAERRARAMNRVVRDVLHRCIARVAAYA
MYEYCRKRGLYPDAESYPWKSNAHYWLVTNLYQNMRANALADAELRRKAADELTCMTARINRGETIPEPVKQLPVMGGRPLNRAQALAKIAEIKAKFGLKGASVLEHHHHHH
MYIAHIFRVSVAHLQFFNGPTTKNWAEPYQSIETSDTQSHITWQALIGRPFIFVEKKFLLFLSKKFSLVGNFPIPSNFADQFSSVSIPSESLPFSRKSFSDHHPWLPLISMESSWE
MYLDFYGLHAHPFQLTPDPAFFFGANGHTRAKSYLMFGLSQGEGFVVVTGDVGAGKTTLLSHMLRSLSDRSIRVARLSTTQLSADDTARVVARAFGLAEPAHPSKGAWLEAIEVFLTQVRAAGERCVLIVDEVQNMGFAALEELRMLGNLGIDDGHSALQTILVGQPQFRNTLAGPSLDQLRQRIVASCHLGPIEPEEVGHYMRYRLTQAGWRGDPSFEEAVFPAVYRHSGGLPRRINILCSRLLLAGFLQERHDLRAQDVEEVAAELEAEAGEVIGVAGETRAGARLDGRFIDAGSLADLEERVLGIEERLRKVDLVVRRGLLNFSDFVSELNAVWKGRPLEHHHHHH
MYLHMAIAAPRILCPDMDSDTTKKWIFREPSRTDGDDVYALITECPPLDINSSYCNFLQATHFSKTCVLAEKDGDLAGFISGYQEPDEPNTLFIWQVAVSPRYRGKGLAFSMLTTLLERKNLLHIEFIETTITKANNASWSLFKKIDAQYGNQGQVTTFLDKESHFKGKHDTEYLYRIPLKSSQK
MYLLEINVFEGLNKKELSMIEVAHAILEQHADVMDFSDLVNQIQNYLGKSDSEIRDQLAQFYTDLNIDGSFISLGDNRWGLRSWYPIDSIDEEVTHGLEEDEEDAPRRRKRKKVNAFITNPNDEDVIDYNDDDPEDAELTNDDEEDILYDDEEDEDEEIKAYNSDLQEIGADSDDDEEDIPQIEEDLTIIDDDDVEDEDDFDDEYSEE
MYLLLSLALVCTAAASSGYGIPANDDPSYSPPANDNPSYSAPANSDNRLYYDYSSRSSSSSSDSSEERECRKLREFDLPSELKSIGVKAKFSEMERRGKTYTTISCPSNTKTYAIIADKSGSNVSQGDITIQDAVLLATGVNIDVVGRCRGRRTTVVANNGDEVKIKTVVCVELSTSPDKY
MYQVITMYGDNEPWWFFDDWQEDIVQEKTFDNLTDAETYYVEVWQKLSQNYTYVNTKPNYLTAFWNDGEERWCEECDEDLQQYFGLALLENHHAVTFENKAEFTTISNHFGKTKFCKRKVI
MYRTPAAIVADATVGIPLVRFVTEEMEMTPELVALYTSHRSVWELLEGELKSLGLNPKVVYGTDVYKTRKSLQEVRPRVVFGSTIERHASEGLPVAYVVEVVRMMRQFRMINREYFGYTGILNLLECVQNEWVMGWRSKELEHHHHHH
MYVAVKGGEKAIDNAHRLLARKRRGDTALPELSVEQIRQQMPLAVSRVMTEGSLYDEQLAALAIKQAAGDLMEAIFLLRAYRTTLPRFAASLPLDTAGMRLQRRISATYKDLPGGQLLGPTFDYTHRLLDFSLLAEGDYPGPEVERGASLEPCPRVLGLLDREGLMTPEYELPGAVPDITREPLDFPTGRAQRLQALARGDEGFLLALGYSTQRGYGRNHPFAGEIRIGACEVWLEPEELGFAVPVGEIEVTECEMVNQFVGSREELPQFTRGYGLAFGYAERKAMGMALVDRALRAEEYGEEVVSPAQQEEFVLMHCDNVEAGGFVSHLKLPHYVDFQSELELIRKLRRPGVAESAQPTVQEKRA

Soluble on expression in E. coli, soluble:
MYEIKGHHHISMVTKNANENNHFYKNVLGLRRVKMTVNQDDPSMYHLFYGDKTGSPGTELSFFEIPLVGRTYRGTNAITRIGLLVPSEDSLHYWKERFEKFDVKHSEMTTYANRPALQFEDAEGLRLVLLVSNGEKVEHWETWEKSEVPAKHQIQGMGSVELTVRRLDKMASTLTEIFGYTEVSRNDQEAIFQSIKGEAFGEIVVKYLDGPTEKPGRGSIHHLAIRVKNDAELAYWEEQVKQRGFHSSGIIDRFYFKSLYFRESNGILFEIATDGPGFTVDGDVEHLGEKLDLPPFLEDQRAEIEANLAPIEEK
MYEPKPEHRFTFGLWTVGNVGRDPFGDAVRERLDPVYVVHKLAELGAYGVNLHDEDLIPRGTPPQERDQIVRRFKKALDETGLKVPMVTANLFSDPAFKDGAFTSPDPWVRAYALRKSLETMDLGAELGAEIYVVWPGREGAEVEATGKARKVWDWVREALNFMAAYAEDQGYGYRFALEPKPNEPRGDIYFATVGSMLAFIHTLDRPERFGLNPEFAHETMAGLNFVHAVAQALDAGKLFHIDLNDQRMSRFDQDLRFGSENLKAAFFLVDLLESSGYQGPRHFDAHALRTEDEEGVWAFARGCMRTYLILKERAEAFREDPEVKELLAAYYQEDPAALALLGPYSREKAEALKRAELPLEAKRRRGYALERLDQLAVEYLLGVRG
MYKYISNELPQFFENGMLRFTQPGQFNDPFELLPRYVDFMGENTKQYILDNIEVLVKEIPQNEPWYIKLIPMSIKVFAIRLLLTSNHKRVKKVTDEIDAFGLSVANGQYRDIIDQSYGILCLSAKEDSLLMWSHYGNSHKGYVIEFDTSHKFFNQVIPNKKTGGVLDYAGTPLKVTYTKRRKTILFWQKAMSEVFLTKGSDWEYEQEYRMVLPLETSTEVVNGNIHLFHIPFDAVKSIIFGAKCEDEFIQNSIAKIHHWDSKHIDFQLFQFNLSDNDFELVRKKI
MYPNQQFMRGKVRDLPDSGVIYLNRIKPIAQEFQQETTAEVEVSVQNIPRHGKSPSSFEKYNSVEERSPTRLPMITTSTTAPKILIEKKVNQQKQEFQKSKQSQLSVPEEAELDRLLDDLLKSDNIPKVILDFFFKMKMIQNFQKTLQLAKIGRRSSKRHVGAYKPKVISFDGTARVNKQHARAHASPTSIGLNPIKTYAYGSSSSQNRGPDFDPWERMGQKALCNLLGTLLLELERIWEHMGGFIDTESPAFFVNETLAQQHIACVFCNKLFNMPQTWEKAQNALNLAGCSNLGGAKKACNGIVNNANLTESFPNMLPHNVQLKDLACKKYCKEQ
MYTNSDFVVIKALEDGVNVIGLTRGADTRFHHSEKLDKGEVLIAQFTEHTSAIKVRGKAYIQTRHGVIESEGKKAAAAAAA
